# In patent US7244430 (CRUCELL HOLLAND B V, dated 2007):
# B1: SC04-374 (scFv)
# scFv: QVTLKESGPTLVKPTQTLTLTCTFSGFSLSTSGVGVGWIRQPPGKALEWLAVIYWNDDKLYRPSLKSRLTITKDTSKNQVVLTMTKMDPVDTATYYCAHRHRYYDISGYYRLFSDAFDIWGQGTMVTVSSGTGGSGGTGSGTGGSTQSVVTQPPSVSGAPGQRVTISCTGSSSNIGAGYDVHWYQQLPGTAPKLLIYGNSNRPSGVPDRFSGSKSGTSASLAITGLQAEDEADYYCQSYDSSLSGSVFGGGTKLTVLG
# B2: SC04-311 (scFv)
# scFv: EVQLVQSGGGVVQPGRSLRLSCVASGFTFSKDAMHWVRQAPGKGLEWVAVISYDGSDKHYADSVKGRVTISRDNSRKTLYLRMDSLRAEDTALYYCARGYNSGHYFDYWGQGTLITVSSGTGGSGGTGSGTGGSTQSVLTQPPSVSAAPGQKVTISCSGTSSNIGDNYVSWYQHLPGTAPKLLIYDNNKRPSGIPDRFSGSKSGTSATLGVTGLQTGDEADYYCGTWDSSLTAVVFGGGTKLTVLG
# B3: CRM4374 (antibody)
# heavy: QITLKESGPTLVKPTQTLTLTCTFSGFSLSTSGVGVGWIRQPPGKALEWLAVIYWNDDKLYRPSLKSRLTITKDTSKNQVVLTMTKMDPVDTATYYCAHRHRYYDISGYYRLFSDAFDIWGQGTMVTVSSASAPTLFPLVSCENSPSDTSSVAVGCLAQDFLPDSITFSWKYKNNSDISSTRGFPSVLRGGKYAATSQVLLPSKDVMQGTDEHVVCKVQHPNGNKEKNVPLPVIAELPPKVSVFVPPRDGFFGNPRKSKLICQATGFSPRQIQVSWLREGKQVGSGVTTDQVQAEAKESGPTTYKVTSTLTIKESDWLSQSMFTCRVDHRGLTFQQNASSMCVPDQDTAIRVFAIPPSFASIFLTKSTKLTCLVTDLTTYDSVTISWTRQNGEAVKTHTNISESHPNATFSAVGEASICEDDWNSGERFTCTVTHTDLPSPLKQTISRPKGVALHRPDVYLLPPAREQLNLRESATITCLVTGFSPADVFVQWMQRGQPLSPEKYVTSAPMPEPQAPGRYFAHSILTVSEEEWNTGETYTCVVAHEALPNRVTERTVDKSTGKPTLYNVSLVMSDTAGTCY
# light: QSVLTQPPSVSGAPGQRVTISCTGSSSNIGAGYDVHWYQQLPGTAPKLLIYGNSNRPSGVPDRFSGSKSGTSASLAITGLQAEDEADYYCQSYDSSLSGSVFGGGTKLTVLGQPKAAPSVTLFPPSSEELQANKATLVCLISDFYPGAVTVAWKADSSPVKAGVETTTPSKQSNNKYAASSYLSLTPEQWKSHRSYSCQVTHEGSTVEKTVAPTECS
# notes: also called IgM form of CR4374
# B4: CR4374 (antibody)
# heavy: not shown
# light: QSVLTQPPSVSGAPGQRVTISCTGSSSNIGAGYDVHWYQQLPGTAPKLLIYGNSNRPSGVPDRFSGSKSGTSASLAITGLQAEDEADYYCQSYDSSLSGSVFGGGTKLTVLGQPKAAPSVTLFPPSSEELQANKATLVCLISDFYPGAVTVAWKADSSPVKAGVETTTPSKQSNNKYAASSYLSLTPEQWKSHRSYSCQVTHEGSTVEKTVAPTECS
# notes: also called CR374
# B5: SC04-361 (scFv)
# scFv: EVQLVQSGAEVKKPGESLKISCKASGFSFSTYWIGWVRQMPGKGLEWMGIIYPADSDTRYSPSFQGQVTISADKSISTAYLQWSSLKASDTAMYYCARLRGPYYDFWNGYRETHDAFNVWGQGTMVTVSSGTGGSGGTGSGTGGSTDVVMTQSPDSLAVSLGERATINCKSSQNILDNSDNKNFLAWYQQKPGQPPKLLIYWASARESGVPDRFSGSGSGTDFTLTISSLQAEDVALYYCQQYYNTPITFGQGTRLEIKR
# B6: SC04-353 (scFv)
# scFv: EVQLVQSGGGVVQPGRSLRLSCAASGFTFSNYAMHWVRQAPGKGLEWVAVISYDGGNKYYADSVKGRFTMSRDNSKNTLYLQMNSLRAEDTAVYYCARDFWSGYSMVDSYYYYMDVWGKGTTVTVSSGTGGSGGTGSGTGGSTETTLTQSPGTLSLSPGERATLSCRASQSVSNTFLAWYQQKPGQAPRLLIYGASSRATGIPDRFSGSGSGTDFTLTISRLEPEDFAAYYCQQYGSSLTFGPGTKVDIKR
# B7: SC04-289 (scFv)
# scFv: QMQLVQSGAEVKKPGESLRISCKGSGYSFTSNWITWVRQMPGKGLEWMGRIDPSDSYTNYSPSFQGHVTISADKSISTAYLQWSSLKASDTAMYYCARDVVGVGASDYYYYMDVWGKGTTVTVSSGTGGSGGTGSGTGGSTEIVLTQSPGTLSLSPGETATLSCRTSQSVSSSYLGWYQQKPGQAPRLLIYGASIRATGIPARFSGSGSGTEFTLTIDSLQSEDFAVYYCQQYNNWPPITFGQGTRLEIKR
# B8: SC04-271 (scFv)
# scFv: EVQLVETGAEVKKPGESLRISCKGSGYTFNNYWIGWVRQMPGKGLEWMGIIYPGDSDTRYSPSVQGHVTISADKSINTAYLQWSSLKASDTAVYYCARRPGYDYGFYYFDYWGQGTLVTVSSGTGGSGGTGSGTGGSTQSALTQPRSVSGSPGQSVTISCTGTSSDVGGYNYVSWYQHHPGKAPKLMIYDVSNRPLGVSNRFSGSKSGNTASLTISGLQAEDEADYYCSSYTSSSTYVFGTGTHLTVLS
# B9: SC04-299 (scFv)
# scFv: EVQLVETGGGVVQPGRSLRLSCAASGFTFSGYAMHWVRQAPGKGLDWVAVISYDGSEKYSADSVKGRFTISRDNSKNTLYLQMNSLRAEDTAVYYCAKESGGPIWYKYYGVDVWGQGTTVTVSSGTGGSGGTGSGTGGSTSYVLTQPPSLSAAPRQRVTISCSGSSSNIGNYGVNWYQQLPGKAPKLLIYYDDLLPSGVSDRFSGSKSGTSASLAISGLQSEDEGDYYCAAWDDTLSAWVFGGGTKLTVLG
# B10: CR5080 (antibody, V domains shown)
# VH: QVTLKESGPTLVKPTQTLTLTCTFSGFSLSTSGVGVGWIRQPPGKALEWLAVIYWNDDKLYRPSLKSRLTITKDTSKNQVVLTMTKMDPVDTATYYCAHRHRYYDISGYYRLFSDAFDIWGQGTMVTVSS
# VL: QSVLTQPPSVSGAPGQRVTISCTGSSSNIGAGYDVHWYQQLPGTAPKLLIYGNSNRPSGVPDRFSGSKSGTSASLAITGLQAEDEADYYCQSYDSSLSGWAFGGGTKLTVLG
# B11: SC04-325 (scFv)
# scFv: QMQLVQSGAEVKKPGSSVKVSCKASGDTFSSYAISWVRQAPGQGLEWMGGIFGTASYAQKFQGRVTITADESTSTAYMELSSLRSEDTAVYYCARGGMATTPGLDYWGQGTLVTVSSGTGGSGGTGSGTGGSTDIQLTQSPDSLAVSLGERATINCKSSQSVLYSSNNKNYLAWYQQKPGQPPKLLIYWASTRESGVPDRFSGSGSGTDFTLTISSLQAEDVAVYYCQQYYSTPLTFGQGTKVEIKR
# B12: SC04-283 (scFv)
# scFv: EVQLVQSGAEVKKSGESLKISCKGSGYTFNTYWIGWVRQMPGKGLEWMGIIYPGDSDTIYSPSFQGQVTISADKSISTAYLQWSSLKASDSAMYYCARLTFRRGYSGSDSFLPPGDFDYWGQGTLVTVSSGTGGSGGTGSGTGGSTDIQMTQSPSTLSASVGDRVTITCRASQSISSWLAWYQQKPGKAPNLLIYAASSLQSGVPSRFSGSGSGTDFTLTISSLQPDDSATYYCQQYNTYPLTFGGGTKVEIKR
# Assays:
# [1] = molecular target: T1, recombinantly expressed purified soluble WNV E protein (strain 382-99) (West Nile virus strain 382-99, UniProt Q9Q6P4 291-696); test: phage ELISA, coated recombinant soluble WNV E protein
# T1 construct: also called recombinant WNV-E protein; truncated E protein; not shown: Myc tag and His tag
# T1 sequence: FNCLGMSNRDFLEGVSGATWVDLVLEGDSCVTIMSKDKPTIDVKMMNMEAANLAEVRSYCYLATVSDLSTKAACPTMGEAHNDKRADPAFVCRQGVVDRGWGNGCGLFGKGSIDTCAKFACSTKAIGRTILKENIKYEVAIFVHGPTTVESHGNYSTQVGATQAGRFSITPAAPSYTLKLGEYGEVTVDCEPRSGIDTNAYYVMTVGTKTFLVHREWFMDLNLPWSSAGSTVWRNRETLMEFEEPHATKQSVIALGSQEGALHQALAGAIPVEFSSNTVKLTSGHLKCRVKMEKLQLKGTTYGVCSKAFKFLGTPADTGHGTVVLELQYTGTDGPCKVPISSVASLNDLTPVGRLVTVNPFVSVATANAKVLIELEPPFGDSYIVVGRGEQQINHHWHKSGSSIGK
# [2] = molecular target: T2, West Nile virus strain USA99b (strain 385-99) (West Nile virus strain 385-99 (USA99b)); test: phage ELISA, coated whole inactivated WNV
# T2 construct: mature; also called WNV; WN virus
# [3] = molecular target: T3, WNV-like particles (wild-type VLP, strain 382-99 M and E proteins) (West Nile virus strain 382-99, UniProt Q9Q6P4 291-791; Q9Q6P4 216-290); test: titration of purified IgM on VLPs
# T3 construct: also called West Nile virus-like particles; WT
# [4] = molecular target: T4, mutant WNV-like particles K307E (West Nile virus strain 382-99, UniProt Q9Q6P4 291-791; Q9Q6P4 216-290); test: ELISA on mutant VLP
# T4 construct: also called mutant K307E
# [5] = molecular target: T5, mutant WNV-like particles T332K (West Nile virus strain 382-99, UniProt Q9Q6P4 291-791; Q9Q6P4 216-290); test: ELISA on mutant VLP, normalized to wild-type VLP
# T5 construct: also called mutant T332K
# [6] = molecular target: T1, recombinantly expressed purified …; test: phage ELISA, coated recombinant soluble WNV E protein; remark: listed apart in the source
# [7] = molecular target: T6, mutant WNV-like particles A365V (West Nile virus strain 382-99, UniProt Q9Q6P4 291-791; Q9Q6P4 216-290); test: ELISA on mutant VLP, normalized to wild-type VLP
# T6 construct: also called mutant A365V
Binder,OD 492 nm [1] [OD 492 nm],OD 492 nm [2] [OD 492 nm],other results
B1,1.36,,
B2,1.54,1.04,
B3,,,binding result [3]: binds
B4,,,binding result [4]: no binding; % of wild-type binding [5]: ~75%
B5,0.076,,binding result [6]: no binding
B6,0.099,,binding result [6]: no binding
B7,1.39,0.759,
B8,0.608,0.984,
B9,,1.07,
B10,,,binding result [4]: no binding; % of wild-type binding [7]: ~37%
B11,1.4,,
B12,0.074,1.21,
